In US20110300138A1 (published 2011):

B1: K1-18 IgG (antibody, V domains shown)
VH: EVQLVQSGAEVKKPGESLKISCKGSGYSFTNYWIGWVRQMPGKGLEWMGIIYPYDSDTRYSPSFEGQVTISADKSIRTAYLHWSSLKASDTAMYYCVRPRDGSYPYDAFDIWGQGTMVTVSS
VL: EIVLTQSPGTLSLSPGERATLSCRASQSVSNNYLAWYQQKPGQAPRLLIYGASSRATGIPDRFSGSGSGTDFTLTISRLEPEDFAVYYCQHCGSSLRAFGQGTKVEIKR
notes: Human IgG1 with kappa light chains, purified from hetero-hybridoma culture supernatant; also called human monoclonal autoantibody to the TSHR with TSH agonist (stimulating) activity
B2: K1-70 IgG (antibody, V domains shown)
VH: EVQLVQSGAEVKKPGQSLKISCKASGYSLTDNWIGWVRQKPGKGLEWMGIIYPGDSDTRYSPSFQGQVTISADKSINTAYLQWSSLKASDTAIYYCVGLDWNYNPLRYWGPGTLVTVSS
VL: QSVLTQPPSVSAAPGQKVTISCSGSSSDIGSNYVSWYQQFPGTAPKLLIYDNNKRPSAIPDRFSGSKSGTSATLGITGLQTGDEADYYCGTWDSRLGIAVFGGGTQLTVLG
notes: Human IgG1 with lambda light chains, purified from hetero-hybridoma culture supernatant
B3: K1-70 Fab (Fab, V domains shown)
VH: B2 VH
VL: B2 VL
notes: also called Fab of K1-70
B4: K1-18 IgG (antibody, V domains shown)
VH: B1 VH
VL: B1 VL
notes: Human IgG1 kappa purified from hetero-hybridoma supernatant
B5: K1-18 Fab (Fab, V domains shown)
VH: B1 VH
VL: B1 VL
notes: residue limits as in claim 65
B6: K1-70 Fab (Fab, V domains shown)
VH: B2 VH
VL: B2 VL
notes: residue limits as in claims 56 and 57
B7: K1-70 IgG (antibody, V domains shown)
VH: B2 VH
VL: B2 VL
notes: Human IgG1 lambda purified from hetero-hybridoma supernatant

The binders below were run against T1, human TSH receptor (full length), coated on ELISA plate wells (human, UniProt P16473 22-764) (assay: ELISA, inhibition of M22 Fab-peroxidase (competitor) binding to TSHR coated wells; 1 µg/mL in assay buffer; mean ± SD).
T1 construct: TSHR coated ELISA plate wells of the TRAb ELISA; also called thyroid stimulating hormone receptor

Point of comparison: B3, “Inhibition of binding (%)” value 97.2%. Against it:
- B1 — lower, 96.3%
- B2 — higher, 98.1%

What follows are binders tested against T2, TSHR260-alkaline phosphatase (TSHR260-AP) (human, UniProt P05187 23-511) (assay: TSHR260-AP bridge ELISA, full length TSHR on wells; 0.005 µg/mL, diluted in HBD).
T2 construct: Fusion of human TSHR amino acids 22-260 (construct codes 1-260, 1-21 being the leader) with secreted alkaline phosphatase, expressed in insect cells; In the ELISA the antibody bridges full length detergent-solubilised TSHR coated on the wells and TSHR260-AP in the liquid phase
Description: (§1) An ELISA was established based on the ability of divalent TSHR antibodies to bind with one antigen binding site to TSHR coated onto an ELISA plate well and with the other antigen binding site to TSHR260-AP in a liquid phase i.e. forming a bridge. TSHR in the form of full length detergent-solubilised receptor expressed in CHO cells was coated onto ELISA plate wells via a C-terminal antibody as described previously (Bolton J et al 1999 supra). In the assay 75 μL of start buffer (as described for TRAb ELISA; Bolton J, et al 1999 supra) and 75 μL of test sample (patient sera or monoclonal antibodies) were added to the ELISA plate wells coated with the full length detergent solubilised TSHR and incubated for 2 hours at room temperature with shaking (500 rpm). Then the contents of the wells were removed, the wells washed 3 times with wash buffer (50 mmol/L NaCl, 20 mmol/L Tris pH 7.8, 1% Triton X-100) followed by addition of […] of TSHR260-AP (diluted in wash buffer containing 0.2 g/L MgCl₂-6H₂O and 2 g/L BSA). After incubation for 1 hour at room temperature with shaking (500 rpm) the wells were emptied, washed (3 times) and 100 μL of p-nitrophenyl phosphate (pNpp) substrate (Europa Bioproducts Ltd, Ely, Cambridge UK) added and the plate incubated in the dark for 45 minutes. Thereafter 100 μL of stop solution (1 mol/L NaOH) was added and the absorbance read at 405 nm in an ELISA plate reader. […] In some experiments solubilised preparations of recombinant TSHR containing mutation R255D expressed in CHO cells were used to coat the ELISA plate wells.
(§2) TSHR260-AP is a fusion protein consisting of a fragment of human TSHR (amino acids 22-260) e with alkaline phosphatase. […] Mean absorbance = mean of duplicate determinations.

Point of comparison: B6, “Mean absorbance at 405 nm” value -0.01 absorbance at 405 nm. Against it:
- B4 — higher, 0.013 absorbance at 405 nm
- B5 — lower, -0.011 absorbance at 405 nm
- B7 — higher, 0.045 absorbance at 405 nm

What follows are binders tested against T1, human TSH receptor (full length), … (assay: ELISA, inhibition of M22 Fab-peroxidase (competitor) binding to TSHR coated wells; 0.01 µg/mL in HBD serum; mean ± SD).

Point of comparison: B2, “Inhibition of binding (%)” value 9.2%. Against it:
- B1 — lower, -4%
- B3 — higher, 27.9%

What follows are binders tested against T1, human TSH receptor (full length), … (assay: ELISA, inhibition of M22 Fab-peroxidase (competitor) binding to TSHR coated wells; 0.01 µg/mL in assay buffer; mean ± SD).

Point of comparison: B3, “Inhibition of binding (%)” value 57.5%. Against it:
- B1 — lower, 8.9%
- B2 — lower, 28%

These binders were tested against T1, human TSH receptor (full length), … (assay: ELISA, inhibition of M22 Fab-peroxidase (competitor) binding to TSHR coated wells; 0.1 µg/mL in HBD serum; mean ± SD).

Point of comparison: B1, “Inhibition of binding (%)” value 56.3%. Against it:
- B2 — higher, 69.7%
- B3 — higher, 86%

What follows are binders tested against T1, human TSH receptor (full length), … (assay: ELISA, inhibition of M22 Fab-peroxidase (competitor) binding to TSHR coated wells; 0.1 µg/mL in assay buffer; mean ± SD).

Point of comparison: B3, “Inhibition of binding (%)” value 94.6%. Against it:
- B1 — lower, 71.9%
- B2 — lower, 93%

What follows are binders tested against T1, human TSH receptor (full length), … (assay: ELISA, inhibition of M22 Fab-peroxidase (competitor) binding to TSHR coated wells; 0.03 µg/mL in assay buffer; mean ± SD).

Point of comparison: B3, “Inhibition of binding (%)” value 82%. Against it:
- B1 — lower, 35.7%
- B2 — lower, 71.8%

What follows are binders tested against T2, TSHR260-alkaline phosphatase … (assay: TSHR260-AP bridge ELISA, full length TSHR on wells; 10 µg/mL, diluted in assay buffer).
Description: as §1, §2

Point of comparison: B7, “Mean absorbance at 405 nm” value 0.885 absorbance at 405 nm. Against it:
- B4 — lower, 0.8 absorbance at 405 nm
- B5 — lower, 0.008 absorbance at 405 nm
- B6 — lower, 0.033 absorbance at 405 nm

These binders were tested against T2, TSHR260-alkaline phosphatase … (assay: TSHR260-AP bridge ELISA, full length TSHR on wells; 10 µg/mL, diluted in HBD).
Description: as §1, §2

Point of comparison: B7, “Mean absorbance at 405 nm” value 0.738 absorbance at 405 nm. Against it:
- B4 — lower, 0.66 absorbance at 405 nm
- B5 — lower, -0.002 absorbance at 405 nm
- B6 — lower, 0.018 absorbance at 405 nm

Each binder was assayed against T2, TSHR260-alkaline phosphatase … (assay: TSHR260-AP bridge ELISA, full length TSHR on wells; 0.005 µg/mL, diluted in assay buffer).
Description: as §1, §2

Point of comparison: B7, “Mean absorbance at 405 nm” value 0.085 absorbance at 405 nm. Against it:
- B4 — higher, 0.136 absorbance at 405 nm
- B5 — lower, -0.004 absorbance at 405 nm
- B6 — lower, -0.004 absorbance at 405 nm

What follows are binders tested against T2, TSHR260-alkaline phosphatase … (assay: TSHR260-AP bridge ELISA, full length TSHR on wells; 250 µg/mL, diluted in assay buffer).
Description: as §1, §2

Point of comparison: B7, “Mean absorbance at 405 nm” value 1.13 absorbance at 405 nm. Against it:
- B4 — higher, 1.2 absorbance at 405 nm
- B5 — lower, 0.049 absorbance at 405 nm
- B6 — lower, 0.056 absorbance at 405 nm

The binders below were run against T2, TSHR260-alkaline phosphatase … (assay: TSHR260-AP bridge ELISA, full length TSHR on wells; 0.1 µg/mL, diluted in assay buffer).
Description: as §1, §2

Point of comparison: B6, “Mean absorbance at 405 nm” value 0.007 absorbance at 405 nm. Against it:
- B4 — higher, 0.545 absorbance at 405 nm
- B5 — lower, 0.002 absorbance at 405 nm
- B7 — higher, 0.713 absorbance at 405 nm

The binders below were run against T2, TSHR260-alkaline phosphatase … (assay: TSHR260-AP bridge ELISA, full length TSHR on wells; 0.1 µg/mL, diluted in HBD).
Description: as §1, §2

Point of comparison: B7, “Mean absorbance at 405 nm” value 0.44 absorbance at 405 nm. Against it:
- B4 — lower, 0.292 absorbance at 405 nm
- B5 — lower, -0.011 absorbance at 405 nm
- B6 — lower, -0.01 absorbance at 405 nm

The binders below were run against T2, TSHR260-alkaline phosphatase … (assay: TSHR260-AP bridge ELISA, full length TSHR on wells; 250 µg/mL, diluted in HBD).
Description: as §1, §2

Point of comparison: B6, “Mean absorbance at 405 nm” value 0.02 absorbance at 405 nm. Against it:
- B4 — higher, 0.722 absorbance at 405 nm
- B5 — lower, -0.007 absorbance at 405 nm
- B7 — higher, 0.817 absorbance at 405 nm

What follows are binders tested against T1, human TSH receptor (full length), … (assay: ELISA, inhibition of M22 Fab-peroxidase (competitor) binding to TSHR coated wells; 1 µg/mL in HBD serum; mean ± SD).

Point of comparison: B2, “Inhibition of binding (%)” value 96.4%. Against it:
- B1 — lower, 94.6%
- B3 — lower, 96.1%

Each binder was assayed against T1, human TSH receptor (full length), … (assay: ELISA, inhibition of M22 Fab-peroxidase (competitor) binding to TSHR coated wells; 0.03 µg/mL in HBD serum; mean ± SD).

Point of comparison: B1, “Inhibition of binding (%)” value 13.6%. Against it:
- B2 — higher, 34.5%
- B3 — higher, 58.8%
